Results as given in paper PMC3839580 (Journal of the American Chemical Society, 2013).
Values joined by “and” are separate entries in the source; they are usually repeats but may differ in a detail not shown here. Identical values can stand only once.

What was measured:
[1] = Size exclusion chromatography of DMPC-based peptide nanoparticles; type: physicochemical; details: construct 300 μM, PBS, overnight, Superdex 200, standard curve of four globular proteins
[2] = cited from earlier work
[3] = thought: two apoA-I molecules (10 helices/molecule) reside in discoidal HDL particles; cited from earlier work
[4] = system: plasma total cholesterol; details: cited from earlier work

For “apoA-I: Apolipoprotein A-I, the primary structural protein within HDL particles”, the “SEC Stokes diameter” value [1] is given as 15 nm and 10 nm, the “plasma half-life in mice” value [2] is given as 11 h and the “helices per particle (value in parentheses)” value [3] is given as 20. For the same substance, the “reduction in plasma cholesterol levels, in words” value [4] was “neither apoA-I nor rHDLs cause significant reduction”.
